Laboratory results published in paper PMC10527483.

Tests used:
Assay in all cases: pull-down
QKI5 = biological target: T1, QKI5 (human, UniProt Q96PU8 1-341)
T1 sequence: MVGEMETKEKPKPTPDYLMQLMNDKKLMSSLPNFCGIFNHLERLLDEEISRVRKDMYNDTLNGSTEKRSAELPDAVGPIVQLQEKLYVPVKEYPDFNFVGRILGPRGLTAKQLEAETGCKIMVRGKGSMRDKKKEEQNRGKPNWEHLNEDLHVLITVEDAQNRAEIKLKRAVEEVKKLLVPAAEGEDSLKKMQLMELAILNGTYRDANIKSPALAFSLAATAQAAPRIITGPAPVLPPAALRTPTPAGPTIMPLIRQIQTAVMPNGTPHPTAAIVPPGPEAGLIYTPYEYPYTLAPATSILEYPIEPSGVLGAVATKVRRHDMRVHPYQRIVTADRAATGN

QKI6 = biological target: T2, QKI6 (human, UniProt Q96PU8-9 1-319)
T2 sequence: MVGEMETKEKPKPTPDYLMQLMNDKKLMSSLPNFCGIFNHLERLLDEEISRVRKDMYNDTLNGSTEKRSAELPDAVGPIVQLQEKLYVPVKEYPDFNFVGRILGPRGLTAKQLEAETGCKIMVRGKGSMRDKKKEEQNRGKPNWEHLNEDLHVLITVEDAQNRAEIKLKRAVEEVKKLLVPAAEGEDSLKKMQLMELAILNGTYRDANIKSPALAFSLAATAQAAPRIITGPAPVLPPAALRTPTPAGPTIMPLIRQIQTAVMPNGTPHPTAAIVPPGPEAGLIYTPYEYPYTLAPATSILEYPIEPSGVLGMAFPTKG

QKI7 = biological target: T3, QKI7 (human, UniProt Q96PU8-6 1-325)
T3 sequence: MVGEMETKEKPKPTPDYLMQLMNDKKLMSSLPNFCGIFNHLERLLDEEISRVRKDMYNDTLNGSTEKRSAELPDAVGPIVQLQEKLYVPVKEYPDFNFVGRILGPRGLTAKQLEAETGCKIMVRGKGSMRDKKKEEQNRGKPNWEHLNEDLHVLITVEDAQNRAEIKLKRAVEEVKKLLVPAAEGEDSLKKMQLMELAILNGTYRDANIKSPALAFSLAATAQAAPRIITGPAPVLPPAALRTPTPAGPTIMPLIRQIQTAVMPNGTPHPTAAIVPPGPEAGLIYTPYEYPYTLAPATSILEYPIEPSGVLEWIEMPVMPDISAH

Measured: binding result

B1: m7G-Oligo, 60-mer (ssRNA)
RNA: CCAAUAAAAUAUUAACCACCAAUAAAAUAUUAACCAAGAUCCACCAAUAAAAUAUUAACC
modifications: N7-methylguanosine at G38 (the only G)
binds: QKI5 | QKI6 | QKI7
